How the values were obtained:
[1] = molecular target: antibody against the IL13 receptor α1 protein (anti-IL13Rα1 antibody); assay: sandwich ELISA, Bi- and Dig-M-R10Z8E9 as capture and detection; analyte 12.50 ng/ml in cynomolgus serum
[2] = molecular target: antibody against the IL-6 receptor (anti-IL6R antibody); assay: as above
[3] = molecular target: antibody against the IL-1R receptor (anti-IL1R antibody); assay: as above
[4] = molecular target: antibody against the amyloid β-A4 peptide (anti-Aβ antibody); assay: as above
[5] = molecular target: antibody against the IL13 receptor α1 protein (anti-IL13Rα1 antibody); assay: sandwich ELISA, Bi- and Dig-M-R10Z8E9 as capture and detection; analyte 50.00 ng/ml in cynomolgus serum
[6] = molecular target: antibody against the IL-6 receptor (anti-IL6R antibody); assay: as above
[7] = molecular target: antibody against the IL-1R receptor (anti-IL1R antibody); assay: as above
[8] = molecular target: antibody against the amyloid β-A4 peptide (anti-Aβ antibody); assay: as above
[9] = molecular target: antibody against the IL13 receptor α1 protein (anti-IL13Rα1 antibody); assay: sandwich ELISA, Bi- and Dig-M-R10Z8E9 as capture and detection; analyte 25.00 ng/ml in cynomolgus serum
[10] = molecular target: antibody against the IL-6 receptor (anti-IL6R antibody); assay: as above
[11] = molecular target: antibody against the IL-1R receptor (anti-IL1R antibody); assay: as above
[12] = molecular target: antibody against the amyloid β-A4 peptide (anti-Aβ antibody); assay: as above
[13] = molecular target: antibody against the IL13 receptor α1 protein (anti-IL13Rα1 antibody); assay: sandwich ELISA, Bi- and Dig-M-R10Z8E9 as capture and detection; analyte 6.25 ng/ml in cynomolgus serum
[14] = molecular target: antibody against the IL-6 receptor (anti-IL6R antibody); assay: as above
[15] = molecular target: antibody against the IL-1R receptor (anti-IL1R antibody); assay: as above
[16] = molecular target: antibody against the amyloid β-A4 peptide (anti-Aβ antibody); assay: as above
[17] = molecular target: antibody against the IL13 receptor α1 protein (anti-IL13Rα1 antibody); assay: sandwich ELISA, Bi- and Dig-M-R10Z8E9 as capture and detection; 0.00 ng/ml analyte in cynomolgus serum (blank)
[18] = molecular target: antibody against the IL-6 receptor (anti-IL6R antibody); assay: as above
[19] = molecular target: antibody against the IL-1R receptor (anti-IL1R antibody); assay: as above
[20] = molecular target: antibody against the amyloid β-A4 peptide (anti-Aβ antibody); assay: as above
[21] = molecular target: antibody against the IL13 receptor α1 protein (anti-IL13Rα1 antibody); assay: sandwich ELISA, Bi- and Dig-M-R10Z8E9 as capture and detection; analyte 3.13 ng/ml in cynomolgus serum
[22] = molecular target: antibody against the IL-6 receptor (anti-IL6R antibody); assay: as above
[23] = molecular target: antibody against the IL-1R receptor (anti-IL1R antibody); assay: as above
[24] = molecular target: antibody against the amyloid β-A4 peptide (anti-Aβ antibody); assay: as above
[25] = molecular target: antibody against the IL13 receptor α1 protein (anti-IL13Rα1 antibody); assay: sandwich ELISA, Bi- and Dig-M-R10Z8E9 as capture and detection; analyte 100.00 ng/ml in cynomolgus serum
[26] = molecular target: antibody against the IL-6 receptor (anti-IL6R antibody); assay: as above
[27] = molecular target: antibody against the IL-1R receptor (anti-IL1R antibody); assay: as above
[28] = molecular target: antibody against the amyloid β-A4 peptide (anti-Aβ antibody); assay: as above
[29] = molecular target: marmoset IgG (marmoset serum); assay: SPR (BIAcore T100), mAb captured by anti-mouse Fc, serum 1:100; 1:1 Langmuir, serum IgG assumed 15 mg/ml
[30] = molecular target: chimpanzee immunoglobulin of class G (chimpanzee serum); assay: as above
[31] = molecular target: human immunoglobulin of class G (human serum); assay: as above
[32] = molecular target: dog IgG (dog serum); assay: as above
[33] = molecular target: antibody against the IL13 receptor α1 protein (anti-IL13Rα1 antibody); assay: sandwich ELISA, Bi- and Dig-M-R10Z8E9 as capture and detection; analyte 1.56 ng/ml in cynomolgus serum
[34] = molecular target: antibody against the IL-6 receptor (anti-IL6R antibody); assay: as above
[35] = molecular target: antibody against the IL-1R receptor (anti-IL1R antibody); assay: as above
[36] = molecular target: antibody against the amyloid β-A4 peptide (anti-Aβ antibody); assay: as above
[37] = molecular target: marmoset IgG (marmoset serum); assay: SPR (BIAcore T100), mAb captured by anti-mouse Fc, serum 1:100; signal at 80 s
[38] = molecular target: chimpanzee immunoglobulin of class G (chimpanzee serum); assay: as above
[39] = molecular target: Rhesus-monkey IgG (Rhesus-monkey serum); assay: as above
[40] = molecular target: cynomolgus IgG (cynomolgus serum); assay: as above
[41] = molecular target: human immunoglobulin of class G (human serum); assay: as above
[42] = molecular target: dog IgG (dog serum); assay: as above
[43] = molecular target: baboon IgG (baboon serum); assay: as above

MAB<h-Fc gamma>M-R10Z8E9 (antibody)
OD [1]: 0.772 OD
OD [2]: 0.664 OD
OD [3]: 0.546 OD
OD [4]: 0.881 OD
OD [5]: 1.67 OD
OD [6]: 1.56 OD
OD [7]: 1.52 OD
OD [8]: 1.71 OD
OD [9]: 1.23 OD
OD [10]: 1.08 OD
OD [11]: 0.98 OD
OD [12]: 1.31 OD
OD [13]: 0.408 OD
OD [14]: 0.348 OD
OD [15]: 0.276 OD
OD [16]: 0.482 OD
OD [17]: 0.022 OD
OD [18]: 0.024 OD
OD [19]: 0.024 OD
OD [20]: 0.023 OD
OD [21]: 0.226 OD
OD [22]: 0.19 OD
OD [23]: 0.153 OD
OD [24]: 0.264 OD
OD [25]: 1.97 OD
OD [26]: 1.82 OD
OD [27]: 1.88 OD
OD [28]: 1.93 OD
Kd [29]: 0.204 µM
Kd [30]: 0.000221 µM
Kd [31]: 0.000177 µM
Kd [32]: 0.0317 µM
OD [33]: 0.119 OD
OD [34]: 0.105 OD
OD [35]: 0.085 OD
OD [36]: 0.139 OD
Bound RU [37]: 18.9 RU
Bound RU [38]: 159 RU
Bound RU [39]: -1.9 RU
Bound RU [40]: -1.4 RU
Bound RU [41]: 151 RU
Bound RU [42]: 35.5 RU
Bound RU [43]: -1.5 RU
